Experimental data as given in the nanobody polyreactivity screen of Harvey et al. (2022).

Assay: yeast display, Sf9 membrane polyspecificity reagent, FACS + sequencing; frameworks hold sequencing errors
Procedure, shortened: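 Polyreactivity labels are assigned by the sorting gate from which each nanobody was recovered. The gates were low and high (top ~1%), set on anti-HA fluorescence for expression and streptavidin fluorescence for reagent binding. Before sorting, galactose-induced (36–48 hours) yeast display cells were stained for 1 hour at 4 °C with 10% biotinylated, detergent-solubilized Sf9 membrane reagent.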

| Sequence | polyreactivity (PSR sort gate) |
| --- | --- |
| QVQLVESGGGLVQAGGSLRLSCAASVRIYRPYAMGRYRQAPGKERELVAAISGSGGSTYYADSVKGRFTISRDNAKNTVYLQMNSLKPEDTAVYYCNAAPKWSDYFYPLEYWGQGTQVTVSS | low polyreactivity |
| QVQLVESGGGLVQAGGSLRLSCAASVRTFEPNAMGWYRQAPGKERELVAAISSSDGSTYYADSVKGRFTISRDNAKNTVYLQMNSLKPEDTAVYYCAADAGYLYDWPYNYYYWGQGTQVTVSS | low polyreactivity |
| QVQLVESGGGLVQAGGSLRLSCAASVRTFNFYASGLYRQATRKQRELVAAIRRGGSTNYADSVKGRFTISRDNAKNTVYLQMNSLIREDTAVYYCNKRVWYPYWTVDYWGQGTQVTVSS | low polyreactivity |
| QVQLVESGGGLVQAGGSLRLSCAASVRTFSYYAMGWYRQAPGKERELVASISGGGRTNYADSVKGRFTISRDNAKKTVYLQMNSLKPEDTAVYYCAARYQITRQYKRGYWGQGNQVTVSS | high polyreactivity |
| QVQLVESGGGLVQAGGSLRLSCAASVRTFTPYAMGWYRQAPGKEREFVAAISIVGRKKYADSVKGRFTISRDNAKNTVYLQMNSLKPEDTEVYYCNAQDSRDRKFYWGYTRGHWGLGTQVTVSS | low polyreactivity |
| QVQLVESGGGLVQAGGSLRLSCAASVSIFARYAMGWYRQAPGKERELVAAITSGTSTNYADSVKGRFTISRDNAKNSVYLQMNSLKPEDTAVYYCNARHTWHQTYDYCGQGTQVTVSS | low polyreactivity |
| QVQLVESGGGLVQAGGSLRLSCAASVSIFRVYALGWYRQEPGKERELVAAITNGGNTNYADSVKGRFTISRDNAKNTVYLQMYSLKPVDTAVYYCAATLNRYWFRLYYYLGQGTQVTVSS | high polyreactivity |
| QVQLVESGGGLVQAGGSLRLSCAASVSIFYHYAMGWYRQAPGKESELVAAIDRTGGSTYYADSVKGRFTISRDNAKNTVYLQMNSLKPEDTAVYYCDADWDYADYYGFQYDYWGQGTQVTVSS | low polyreactivity |
| QVQLVESGGGLVQAGGSLRLSCAASVSIFYVYARGCYRQAPGKERELVAAITSSGTTNYADSVKGRFTISRDNAKNTVYLQMNSLKPEDTAVYYCAADPDSGQVPFDYWGQGTHVTVSS | low polyreactivity |
| QVQLVESGGGLVQAGGSLRLSCAASVSTFANNAMGWYRQAPGKERELVASITTDGSTNYADSVKGRFTISRDNAKNTVYLQMNSLKPEDTAVYYCAADYHTPSSFAPIELYDYWGQGTQVTVSS | low polyreactivity |
| QVQLVESGGGLVQAGGSLRLSCAASVSTFAPNAMGWYRQAPGKEMELVASIRRGGSTHYADSVKGRFTISRDNAKNTVYLQMNSLQPEDTAVYYCAAEFRDVSSNGYDYWGQGTQVTVSS | low polyreactivity |
| QVQLVESGGGLVQAGGSLRLSCAASVSTFDSYVMGWYRQAPGKERELVAAITSGGSTYYADSVKGRFTISRDNAKNTVYLQMNSLKPVDTAVYYCNRDERVGKWGYYWGQGTQVTVSS | low polyreactivity |
| QVQLVESGGGLVQAGGSLRLSCAASVSTFISYAMGWYRQAPGKERELVAAISSSTGRTYYADSVKGRFTISRDNAKNTVYLQLNSLKPEDTAVFYCNAVHRYERDYWGQGTQVTVSS | high polyreactivity |
| QVQLVESGGGLVQAGGSLRLSCAASVSTFWFYAMGWYRQAPGKERELVAVISNSGSTYYADSVKGRFTISRDNAKNTVYLQMNSLKPEDTAVYYCAADVEGWTVESDVYRVGYDYWGQGTQVTVSS | low polyreactivity |
| QVQLVESGGGLVQAGGSLRLSCAASVSTFYGYAMGWYRQAPGKERELVAAITSTVITDYADSVKGRFTISRDNAKNTVYLQMNSLKPEDTAVYYCSADRYDSSQFYYWGQGTQVTVSS | low polyreactivity |
| QVQLVESGGGLVQAGGSLRLSCAASVYGMGWYRQAPGKERELVAAISNGGTTYYADSVKGRFTISRDNAKNTVYLQMNSLKPEDTAVYYCAARSWPGGFIYYYWGQGTQVTVSS | low polyreactivity |
| QVQLVESGGGLVQAGGSLRLSCAASVYTSNYYAMGWYRQAPGKEREFVAAITASSVSTYYADSVKGRFTISRDNAKNTVYVQMNSLKPEDTAVYYCAVVYISYTSWLWVYWLVDFDYWGQGTQVTVSS | low polyreactivity |
| QVQLVESGGGLVQAGGSLRLSCAASYAMGWYRQAPGKERELVATITSGGVSTYYADSVKGRFTISRDNAKNTVYLQMNSLKPEDTAVYYCAATASHSTSADYDYWGQGTQVTVSS | low polyreactivity |
| QVQLVESGGGLVQAGGSLRLSCAATGFIFPLYAMGWYRQAPGKQSELVAAITWRGDTTSYADSVKGRFTISRDNAKNTVYLQMNSLKPVDPAVYYCAADSYRYRPGYGPVLYDYWGQGTQVTVSS | high polyreactivity |
| QVQLVESGGGLVQAGGSLRLSCAATGFTFGRYAMGWYRQAPGKERELVAAITWSGGSTYYADSVKGRFTISRDNAKNTVYLQMNSLKPEDTAVYYCNRLSNNREYDYWGQGTQVTVSS | high polyreactivity |

| Sequence | polyreactivity (PSR sort gate) |
| --- | --- |
| QVQLVESGGGLVQAGGSLRLSCAATGGIFDYYAMGWYRQAPGKERALVAAIRGGGSTNYADSVKGRFTISRDNAKNTVYLQMNSLKPEDTAVYYCAKDSPFTSVTVLAPIIYDSWGQGTQVTVSS | low polyreactivity |
| QVQLVESGGGLVQAGGSLRLSCAATGIIFGTYAMGWYLQAPGTERELVAVISWRGGTYADSVKRRFTISRDNAKNTVYLQMNSLKPEDSAVYYCNARTWARLGSYWWIVDSWGQGTQVTVSS | high polyreactivity |
| QVQLVESGGGLVQAGGSLRLSCAATGITFGRNTMGWYRQAPGKERDLVAAIDSGGNTYADSVKGRFTISRDNAKNTVYLQMNSLKPEDTGVFYSAGDGGELSSYGYWGQGTQVTVSS | low polyreactivity |
| QVQLVESGGGLVQAGGSLRLSCAATGRIFNYYAMGWYRQAPGKERELVAAISNGGSTYYADSVKGRFTISRDNAKNTVYLQMNSLKPEDTAVYYCNAAARNGYARRVYYWGQGTQVTVSS | high polyreactivity |
| QVQLVESGGGLVQAGGSLRLSCAATGRIFRYYAMGLYRQAPGNERELVAAIRRGGSTTYADSVKGRFTISRDNAKNTFYLQMNSLKPEDTAVYYCAATQYYRGYDYWGQGSQVTVSS | high polyreactivity |
| QVQLVESGGGLVQAGGSLRLSCAATGRIFRYYTMGWYRQAPGKERELVAAITSSSGSTYYADSVKGRFTISRDNAKNTVYLQMNSLKPEDTAVYYCNAVRYTTQTPNVDYGYWGQGTQVTVSS | high polyreactivity |
| QVQLVESGGGLVQAGGSLRLSCAATGRIFTTYAMGWYRQAPGKERELVAAITSGGGTYYADSVKGRFTISRDNAKNTVYLQMNSLKPEDTAVYYCNADYSADYYWYYYCGQGTQVTVSS | low polyreactivity |
| QVQLVESGGGLVQAGGSLRLSCAATGRIFWVYAMGWYRQAPGKERELVAAINTSVGRTHYADSVKGRFTISRDNAKNTVYLQMNSLKPEDTAVYYCAADVKRYGWEYGYWGQGTQVTVSS | low polyreactivity |
| QVQLVESGGGLVQAGGSLRLSCAATGRIFYYYTMGWYRQAPGKERELVAAISWGGVNTDYADSVKGRFTISRDNAKNTVYLQMNSLKPEDTAVYYCAAGRWSVGTYDYWGQGTQVTVSS | low polyreactivity |
| QVQLVESGGGLVQAGGSLRLSCAATGRILYYYAMVWYRQAPGKEREVVAASTSGGSTYADSVKGRFTISRDNAKNTVYLQMNSQKPEDTAVYYCNADSTVYDTEYAYWGQGTQVTVSS | low polyreactivity |
| QVQLVESGGGLVQAGGSLRLSCAATGRTFEGYAMGWYRQAPGKERELVAAISNSGGSTYYADSVKGRFTISRDNAKNTVYLQMNSLKPEDTAVYDCAALSRIRRYGYWGQGTQVNVSS | high polyreactivity |
| QVQLVESGGGLVQAGGSLRLSCAATGRTFGFNDMGWYRKATGKEREFVAAINSGGNTYYADSVKGRFTISRDNAKNTVYLQMNSLKPEDTAVYECAVKRASRYYVRKEYYYWGQGTQVTVSS | high polyreactivity |
| QVQLVESGGGLVQAGGSLRLSCAATGRTFGSNAMGWYRQAPGKERELVAAISLRGGRTYYADSVKGRFTISRDTAKNTVYLQMNSLKPEDTAVYYCNAVHYLYGARSRLTYDYWGQGTQVTVSS | high polyreactivity |
| QVQLVESGGGLVQAGGSLRLSCAATGRTFTVNPMGWYIQAPGKERELVAAITGSGGSTYYADSVKGRFTISRDNGKNTVYLQMNSLKPEDTAGYYCAADVNWFRWWSGSVELDYWGQGTQVTVTS | low polyreactivity |
| QVQLVESGGGLVQAGGSLRLSCAATGRTFVTYAMGWYRQAPGKEREFVAAITWSTGTSTYYADSVKGRFTISRDNAKNTVFLQIHSLNQEDTAVDYCHADSQEWIWLYEGYDYWGQGTQVSVSS | low polyreactivity |
| QVQLVESGGGLVQAGGSLRLSCAATGRTLGGNAMGWYRLAPGKEREFVARISTRGVRTYYAYSVKGRFTISRDNAKNTVDLQLNSLNPEDTAVYYCAKQVSYGHIGSYPDRDSWGQGTQVTVSS | low polyreactivity |
| QVQLVESGGGLVQAGGSLRLSCAATGRTSTYYPMGWYRQAPGKERELVAAIRSGTITNYADSVKGRFTISRDNAKNTVYLQMNSLKPEDSAVYYCAAKYRYSTYHRGSFNYWGQGTQVTVSS | high polyreactivity |
| QVQLVESGGGLVQAGGSLRLSCAATGSIFARYAMGWYRQAPGKERELVAAIDQSAGSTYYADSVKGRFTISRDNAKNTVYLQMNSLKPEDTAVYYCNADFWYWWVNTYVGPGLGYWGQGTQVTVSS | high polyreactivity |
| QVQLVESGGGLVQAGGSLRLSCAATGSIFFDNAMGWYRQAPGHERELVAAITSSGGRTYYADSVKGRFTISRDNAKNTVYLQMNSLKPEDTAVYYCAASPKYTTGRYSGEYWGQGTQVTVSS | low polyreactivity |
| QVQLVESGGGLVQAGGSLRLSCAATGSIFFINAMGWYRQAPGKERELVAAITWDGGSTYYADSVKGRFTISRVNAKNTVYLQMNSLKPEDTAVYYCAAVADYYDFISPPLDYWGQGTQVNVSS | low polyreactivity |
